Results: the supplement of paper PMC10126150
± gives the standard deviation of the averaged measurements.

Test system: ATP
Experiment: switch fluorescence ratio, 500 uM ATP over buffer (Cy3 cluster intensity, sum of 5 cycles each) (fold (ratio)); higher = stronger signal-on switching upon ATP binding; sequences stand for … in TCGTCGGCAGCGTCAGATGTGTATAAGAGACAGTTTTTTTTTTTTTTTTTTTTTTTTT…TC
Details: aptamer strand: ATP DNA aptamer (quencher-CACCTGGGGGAGTATTGCGGAGGAAGG + anchor), 100 nM annealed; ATP concentration: 500 uM
Summary of the method: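 Imaging in selection buffer was followed by imaging after 15 min with 500 uM ATP at 22 °C, for Cy3-labelled switching-strand clusters annealed to 100 nM quencher-labelled ATP aptamer on a modified Illumina MiSeq flow-cell. Five of these buffer/ATP cycles ran, separated by NaOH stripping and re-annealing. The fluorescence ratio per cluster is summed target-cycle over summed buffer-cycle Cy3 intensity, averaged per switch-domain sequence; clusters outside 100-1000 RFU were removed.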
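Also: ATP exposure 15 min at 22 °C before imaging.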

Row | Sequence | switch fluorescence ratio
1 | AGGGCCTCCG | 1.295 ± 0.0091
2 | AGGGCCTGGG | 0.999 ± 0.04
3 | AGGGCGACCG | 1.07 ± 0.069
4 | AGGGCGCGCT | 1.01 ± 0.034
5 | AGGGCGCTG | 0.9885 ± 0.0045
6 | AGGGCGTCGA | 0.986 ± 0.034
7 | AGGGCGTGGC | 0.9876 ± 0.0018
8 | AGGGCGTTTG | 0.998 ± 0.018
9 | AGGGCTAAAT | 0.995 ± 0.025
10 | AGGGCTGACG | 1.02 ± 0.024
11 | AGGGCTGGAT | 1.06 ± 0.12
12 | AGGGCTTTCC | 1.075 ± 0.007
13 | AGGGGAAGCT | 1.03 ± 0.081
14 | AGGGGAAGTC | 0.953 ± 0.015
15 | AGGGGAATAA | 0.997 ± 0.015
16 | AGGGGAATG | 1 ± 0.022
17 | AGGGGAATGC | 1.09 ± 0.084
18 | AGGGGAATTA | 1.026 ± 0.0047
19 | AGGGGACAAA | 1 ± 0.035
20 | AGGGGACTGT | 1.01 ± 0.047
21 | AGGGGAGATG | 0.991 ± 0.048
22 | AGGGGAGGAA | 0.994 ± 0.013
23 | AGGGGAGGGC | 0.998 ± 0.042

Row | Sequence | switch fluorescence ratio
24 | AGGGGAGTAA | 0.996 ± 0.023
25 | AGGGGATGGG | 1.03 ± 0.033
26 | AGGGGCAAAG | 1.01 ± 0.013
27 | AGGGGCATGG | 0.998 ± 0.04
28 | AGGGGCCGGG | 1.05 ± 0.12
29 | AGGGGCCTGT | 0.962 ± 0.037
30 | AGGGGCGAGA | 0.999 ± 0.013
31 | AGGGGCGGAG | 0.9743 ± 0.0035
32 | AGGGGCTCGT | 1 ± 0.012
33 | AGGGGCTGAA | 0.986 ± 0.042
34 | AGGGGCTTGT | 0.979 ± 0.024
35 | AGGGGGAATA | 1.02 ± 0.011
36 | AGGGGGACGG | 0.987 ± 0.023
37 | AGGGGGATGG | 0.996 ± 0.013
38 | AGGGGGCAAC | 1.04 ± 0.03
39 | AGGGGGCGTA | 0.9896 ± 0.0086
40 | AGGGGGCGTG | 1.03 ± 0.031
41 | AGGGGGCTAT | 1.02 ± 0.015
42 | AGGGGGCTCG | 1 ± 0.024
43 | AGGGGGCTGG | 0.977 ± 0.018
44 | AGGGGGGATT | 1 ± 0.019
45 | AGGGGGGCCC | 1 ± 0.037
46 | AGGGGGGGAA | 1.01 ± 0.032

Row | Sequence | switch fluorescence ratio
47 | AGGGGGGGTG | 1.05 ± 0.11
48 | AGGGGGGTAA | 0.993 ± 0.026
49 | AGGGGGGTG | 1 ± 0.039
50 | AGGGGGTCGT | 0.98 ± 0.017
51 | AGGGGGTTAA | 0.996 ± 0.017
52 | AGGGGGTTGA | 1.03 ± 0.032
53 | AGGGGGTTGC | 1.01 ± 0.026
54 | AGGGGGTTTC | 1 ± 0.022
55 | AGGGGTAACG | 0.9807 ± 0.0098
56 | AGGGGTAGTA | 1.03 ± 0.04
57 | AGGGGTAGTG | 0.98 ± 0.019
58 | AGGGGTATAT | 1.02 ± 0.028
59 | AGGGGTATTT | 1.01 ± 0.041
60 | AGGGGTGAGC | 1.02 ± 0.072
61 | AGGGGTGCCG | 1.05 ± 0.026
62 | AGGGGTGGCG | 1.02 ± 0.014
63 | AGGGGTGGTT | 0.9581 ± 0.0017
64 | AGGGGTGTCT | 1.03 ± 0.017
65 | AGGGGTTCCG | 0.979 ± 0.042
66 | AGGGGTTGGC | 0.958 ± 0.056
67 | AGGGGTTGGG | 0.992 ± 0.061
68 | AGGGGTTGTA | 0.971 ± 0.02
69 | AGGGGTTTCT | 0.984 ± 0.016

Row | Sequence | switch fluorescence ratio
70 | AGGGTAAAGT | 0.98 ± 0.018
71 | AGGGTAACTT | 1.01 ± 0.023
72 | AGGGTAAGGT | 1.04 ± 0.082
73 | AGGGTAATGC | 1.11 ± 0.09
74 | AGGGTAATGT | 0.9718 ± 0.0036
75 | AGGGTAATTA | 0.979 ± 0.029
76 | AGGGTACTTA | 1.05 ± 0.028
77 | AGGGTAGGCC | 1.009 ± 0.0019
78 | AGGGTAGTTT | 0.985 ± 0.045
79 | AGGGTATGAA | 0.998 ± 0.022
80 | AGGGTATGTA | 1 ± 0.015
81 | AGGGTATTGG | 0.993 ± 0.028
82 | AGGGTCAGCT | 1.02 ± 0.014
83 | AGGGTCGATG | 1.07 ± 0.073
84 | AGGGTCGGGA | 0.9838 ± 0.0013
85 | AGGGTCTCCG | 1 ± 0.062
86 | AGGGTCTTCG | 1.04 ± 0.012
87 | AGGGTGAACC | 0.99 ± 0.016
88 | AGGGTGACCT | 1.17 ± 0.15
89 | AGGGTGAGAG | 0.965 ± 0.025
90 | AGGGTGAGGT | 0.993 ± 0.022
91 | AGGGTGGGGC | 1.03 ± 0.065
92 | AGGGTGGGTT | 0.9771 ± 0.005

Row | Sequence | switch fluorescence ratio
93 | AGGGTGGTGC | 1.03 ± 0.018
94 | AGGGTGGTTG | 0.987 ± 0.058
95 | AGGGTTCCTG | 0.954 ± 0.036
96 | AGGGTTCGGG | 1.01 ± 0.031
97 | AGGGTTGCGC | 1.02 ± 0.019
98 | AGGGTTGGGG | 0.991 ± 0.031
99 | AGGGTTGTCG | 0.99 ± 0.023
100 | AGGGTTTCCG | 1.03 ± 0.038
101 | AGGGTTTGGT | 0.982 ± 0.02
102 | AGGTAAAGGG | 0.996 ± 0.04
103 | AGGTAAATGT | 0.972 ± 0.023
104 | AGGTAAATTC | 2.33 ± 0.63
105 | AGGTAAATTG | 1.01 ± 0.015
106 | AGGTAACTGG | 1.001 ± 0.00096
107 | AGGTAATATG | 0.9867 ± 0.0081
108 | AGGTAATCAT | 1.01 ± 0.05
109 | AGGTAATGTT | 1.01 ± 0.021
110 | AGGTAGAAGT | 1.03 ± 0.012
111 | AGGTAGATAA | 0.99834 ± 0.00052
112 | AGGTAGGGCT | 1 ± 0.029
113 | AGGTAGGGGA | 1.01 ± 0.041
114 | AGGTAGGTCC | 0.998 ± 0.022
115 | AGGTAGGTTC | 0.995 ± 0.019

Row | Sequence | switch fluorescence ratio
116 | AGGTAGTATT | 1.04 ± 0.012
117 | AGGTATCCCT | 1.01 ± 0.022
118 | AGGTATGTTT | 1 ± 0.068
119 | AGGTATTGCT | 0.9854 ± 0.0091
120 | AGGTCAGGTG | 3.06 ± 0.33
121 | AGGTCAGTTA | 0.998 ± 0.028
122 | AGGTCCAGGT | 1.262 ± 0.0015
123 | AGGTCCCAGC | 1 ± 0.02
124 | AGGTCCCGTT | 0.993 ± 0.036
125 | AGGTCGGTGG | 1.07 ± 0.11
126 | AGGTCTATTT | 1.008 ± 0.0024
127 | AGGTCTGGGC | 0.978 ± 0.074
128 | AGGTCTGTGG | 0.982 ± 0.04
129 | AGGTGAAAGT | 0.983 ± 0.029
130 | AGGTGAAGCC | 1.01 ± 0.038
131 | AGGTGACGG | 0.993 ± 0.058
132 | AGGTGACTCG | 1.04 ± 0.017
133 | AGGTGAGGGG | 0.99 ± 0.022
134 | AGGTGATTCT | 1.04 ± 0.025
135 | AGGTGCGGAA | 1.0109 ± 0.00064
136 | AGGTGCGGGG | 1.01 ± 0.042
137 | AGGTGGCGTC | 1.03 ± 0.027
138 | AGGTGGGGGG | 1.01 ± 0.043

Row | Sequence | switch fluorescence ratio
139 | AGGTGGGTTG | 1.01 ± 0.055
140 | AGGTGTGGGT | 1.01 ± 0.037
141 | AGGTGTTCGG | 0.976 ± 0.019
142 | AGGTGTTTAC | 1.01 ± 0.011
143 | AGGTTAAAAC | 1.2 ± 0.19
144 | AGGTTAAAGG | 1 ± 0.016
145 | AGGTTAAGAC | 0.99 ± 0.044
146 | AGGTTAAGGT | 1.01 ± 0.02
147 | AGGTTAATTT | 1.01 ± 0.046
148 | AGGTTAGGGG | 0.998 ± 0.037
149 | AGGTTAGTGT | 0.9584 ± 0.001
150 | AGGTTATAGT | 1.03 ± 0.051
151 | AGGTTCAGTC | 1.02 ± 0.022
152 | AGGTTCCTGT | 0.9944 ± 0.0091
153 | AGGTTCGGCG | 1 ± 0.015
154 | AGGTTCGTAT | 1.01 ± 0.03
155 | AGGTTCTTTG | 0.974 ± 0.026
156 | AGGTTGAAAA | 0.963 ± 0.032
157 | AGGTTGATGG | 0.954 ± 0.043
